This is an account of results in the supplement of paper PMC10567573.

First the molecules themselves.
B1: SMAD6 (parent)
chain: SGLVRRLWRSRVVPDREEGGSGGG
B2: ZNF263 (parent)
chain: HLTRHQRTHTGEKPYKCTLCGENF
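Note: lentivirally expressed fusions sorted by FACS into six bins by GFP to DsRed ratio, PSI derived from sequencing read proportions per bin multiplied by bin number.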

One series covers variants of B1. The experiment in a line: protein stability index of a GFP-peptide fusion (GPS, HEK-293T) (PSI 1-6); higher = more stable. The conditions noted are these: c terminus: a fixed tail appended.
As to SGLVSRLWRSRVVPDREEGGSGGG [R5S], the protein stability index was determined as 3.27.

Turning to SGLVMRLWRSRVVPDREEGGSGGG [R5M], the protein stability index turned out to be 3.3.

As for SGLVARLWRSRVVPDREEGGSGGG [R5A], the protein stability index is 3.76.

As to SGLVLRLWRSRVVPDREEGGSGGG [R5L], the protein stability index turned out to be 1.97.

With SGLVIRLWRSRVVPDREEGGSGGG [R5I], the protein stability index worked out at 2.4.

With SGLVCRLWRSRVVPDREEGGSGGG [R5C], the protein stability index was 2.46.

On to SGLVQRLWRSRVVPDREEGGSGGG [R5Q], for which the protein stability index came to 3.72.

As to SGLVHRLWRSRVVPDREEGGSGGG [R5H], the protein stability index was 4.21.

On to IGLVRRLWRSRVVPDREEGGSGGG [S1I], for which the protein stability index was determined as 2.92.

For MGLVRRLWRSRVVPDREEGGSGGG [S1M], the protein stability index was 2.45.

In the case of QGLVRRLWRSRVVPDREEGGSGGG [S1Q], the protein stability index worked out at 5.24.

For the variant HGLVRRLWRSRVVPDREEGGSGGG [S1H], the protein stability index was 3.81.

WGLVRRLWRSRVVPDREEGGSGGG [S1W]: the protein stability index stood at 2.61.

As for CGLVRRLWRSRVVPDREEGGSGGG [S1C], the protein stability index worked out at 2.09.

With SGLVRRLWRSWVVPDREEGGSGGG [R11W], the protein stability index was found to be 2.22.

Consider SGLVRRLWRSIVVPDREEGGSGGG [R11I], for which the protein stability index worked out at 2.63.

On to SGLVRRLWRSKVVPDREEGGSGGG [R11K], for which the protein stability index amounted to 4.15.

As to SGLVRRLWRSGVVPDREEGGSGGG [R11G], the protein stability index worked out at 4.98.

With SGLVRRLWRSTVVPDREEGGSGGG [R11T], the protein stability index is 4.68.

Take SGMVRRLWRSRVVPDREEGGSGGG [L3M]: the protein stability index is 4.06.

Take SGTVRRLWRSRVVPDREEGGSGGG [L3T]: the protein stability index was determined as 3.54.

SGNVRRLWRSRVVPDREEGGSGGG [L3N]: the protein stability index was 4.73.

Consider SGSVRRLWRSRVVPDREEGGSGGG [L3S], for which the protein stability index stood at 4.38.

SGQVRRLWRSRVVPDREEGGSGGG [L3Q]: the protein stability index worked out at 3.88.

SGWVRRLWRSRVVPDREEGGSGGG [L3W]: the protein stability index came out at 4.17.

For SGLERRLWRSRVVPDREEGGSGGG [V4E], the protein stability index was 4.63.

With SGLKRRLWRSRVVPDREEGGSGGG [V4K], the protein stability index was 4.45.

SGLGRRLWRSRVVPDREEGGSGGG [V4G]: the protein stability index is 3.41.

On to SGLVRRLNRSRVVPDREEGGSGGG [W8N], for which the protein stability index was 5.26.

Turning to SGLVRRLKRSRVVPDREEGGSGGG [W8K], the protein stability index is 4.64.

As to SGLVRRLLRSRVVPDREEGGSGGG [W8L], the protein stability index was 4.22.

Consider SGLVRRLSRSRVVPDREEGGSGGG [W8S], for which the protein stability index is 5.1.

SGLVRRLQRSRVVPDREEGGSGGG [W8Q]: the protein stability index was determined as 5.

With SMLVRRLWRSRVVPDREEGGSGGG [G2M], the protein stability index was 3.19.

Take SFLVRRLWRSRVVPDREEGGSGGG [G2F]: the protein stability index turned out to be 2.93.

SWLVRRLWRSRVVPDREEGGSGGG [G2W]: the protein stability index amounted to 2.29.

For the variant SLLVRRLWRSRVVPDREEGGSGGG [G2L], the protein stability index was determined as 3.51.

Take SKLVRRLWRSRVVPDREEGGSGGG [G2K]: the protein stability index came to 3.6.

On to SSLVRRLWRSRVVPDREEGGSGGG [G2S], for which the protein stability index worked out at 4.17.

Turning to SDLVRRLWRSRVVPDREEGGSGGG [G2D], the protein stability index came to 2.93.

Consider SPLVRRLWRSRVVPDREEGGSGGG [G2P], for which the protein stability index was found to be 4.79.

As to SALVRRLWRSRVVPDREEGGSGGG [G2A], the protein stability index worked out at 2.15.

SNLVRRLWRSRVVPDREEGGSGGG [G2N]: the protein stability index is 4.17.

With SVLVRRLWRSRVVPDREEGGSGGG [G2V], the protein stability index was found to be 3.03.

For the variant SELVRRLWRSRVVPDREEGGSGGG [G2E], the protein stability index is 2.35.

On to SHLVRRLWRSRVVPDREEGGSGGG [G2H], for which the protein stability index was determined as 4.14.

Regarding SGLVRRYWRSRVVPDREEGGSGGG [L7Y], the protein stability index came to 3.82.

With SGLVRRQWRSRVVPDREEGGSGGG [L7Q], the protein stability index was determined as 4.4.

With SGLVRREWRSRVVPDREEGGSGGG [L7E], the protein stability index amounted to 3.82.

Regarding SGLVRRHWRSRVVPDREEGGSGGG [L7H], the protein stability index came out at 3.55.

In the case of SGLVRRIWRSRVVPDREEGGSGGG [L7I], the protein stability index amounted to 4.14.

With SGLVRRSWRSRVVPDREEGGSGGG [L7S], the protein stability index stood at 4.

As to SGLVRALWRSRVVPDREEGGSGGG [R6A], the protein stability index is 3.27.

Regarding SGLVRCLWRSRVVPDREEGGSGGG [R6C], the protein stability index came out at 3.46.

Turning to SGLVRHLWRSRVVPDREEGGSGGG [R6H], the protein stability index stood at 4.

On to SGLVRMLWRSRVVPDREEGGSGGG [R6M], for which the protein stability index was determined as 2.93.

As for SGLVRSLWRSRVVPDREEGGSGGG [R6S], the protein stability index is 3.29.

With SGLVRRLWRSRCVPDREEGGSGGG [V12C], the protein stability index is 2.94.

As to SGLVRRLWGSRVVPDREEGGSGGG [R9G], the protein stability index is 3.27.

For the variant SGLVRRLWPSRVVPDREEGGSGGG [R9P], the protein stability index stood at 4.85.

As for SGLVRRLWNSRVVPDREEGGSGGG [R9N], the protein stability index was 3.96.

For SGLVRRLWTSRVVPDREEGGSGGG [R9T], the protein stability index is 2.82.

As to SGLVRRLWHSRVVPDREEGGSGGG [R9H], the protein stability index came to 3.69.

For SGLVRRLWRFRVVPDREEGGSGGG [S10F], the protein stability index was determined as 2.4.

With SGLVRRLWRHRVVPDREEGGSGGG [S10H], the protein stability index came out at 2.24.

For SGLVRRLWRARVVPDREEGGSGGG [S10A], the protein stability index was determined as 3.76.

On to SGLVRRLWRNRVVPDREEGGSGGG [S10N], for which the protein stability index was found to be 3.89.

As to SGLVRRLWRWRVVPDREEGGSGGG [S10W], the protein stability index worked out at 2.6.

The next series covers variants of B2. Described as above. The conditions noted are these: c terminus: a fixed tail appended.
For HLTRHQRTHTGEKPYKCTLAGENF [C20A], the protein stability index is 2.89.

As for HLTRHQRTHTGEKPYKCTLRGENF [C20R], the protein stability index was found to be 3.03.

With HLTRHQRTHTGEKPYKCTLEGENF [C20E], the protein stability index amounted to 4.11.

For the variant HLTRHQRTHTGEKPYKCTLGGENF [C20G], the protein stability index came out at 2.92.

In the case of HLTRHQRTHTGEKPYKCTLWGENF [C20W], the protein stability index is 2.56.

For HLTRHQRTHTGEKPYKCTLQGENF [C20Q], the protein stability index is 3.44.

On to HLTRHQRTHTGEKPYKCTLLGENF [C20L], for which the protein stability index amounted to 2.61.

HLTRHQRTHTGEKPYKCTLDGENF [C20D]: the protein stability index was found to be 3.69.

For HLTRHQRTHTGEKPYKCTLFGENF [C20F], the protein stability index was determined as 2.25.

With HLTRHQRTHTGEKPYKCTLKGENF [C20K], the protein stability index was 3.12.

Take HLTRHQRTHTGEKPYKCTLIGENF [C20I]: the protein stability index stood at 2.57.

Consider HLTRHQRTHTGEKPYKCTLMGENF [C20M], for which the protein stability index was found to be 2.93.

Regarding HLTRHQRTHTGEKPYKCTLHGENF [C20H], the protein stability index came to 2.66.

Turning to HLTRHQRTHTGEKPYKCTLTGENF [C20T], the protein stability index was found to be 3.93.

For the variant HLTRHQRTHTGEKPYKCTLPGENF [C20P], the protein stability index was 2.53.

For HLTRHQRTHTGEKPYKCTLSGENF [C20S], the protein stability index was determined as 3.23.

As to HLTRHQRTHTGEKPYKCTLNGENF [C20N], the protein stability index worked out at 3.25.

As to HLTRHQRTHTGEKPYKCTLVGENF [C20V], the protein stability index came to 3.07.

For the variant HLTRHQRTHTGEKPYKCTLYGENF [C20Y], the protein stability index worked out at 2.77.

On to HLTRHQRTHTGEKPYKCTLCGEFF [N23F], for which the protein stability index turned out to be 2.33.

Turning to HLTRHQRTHTGEKPYKCTLCGEHF [N23H], the protein stability index came to 1.98.

Take HLTRHQRTHTGEKPYKCTLCGEPF [N23P]: the protein stability index was 2.54.

For HLTRHQRTHTGEKPYKCTLCGEAF [N23A], the protein stability index was found to be 2.68.

Consider HLTRHQRTHTGEKPYKCTLCGEKF [N23K], for which the protein stability index came out at 3.22.

Regarding HLTRHQRTHTGEKPYKCTLCGEMF [N23M], the protein stability index stood at 2.3.

As to HLTRHQRTHTGEKPYKCTLCGETF [N23T], the protein stability index was 2.83.
